Measurements published in patent US10111934.

Biological target: IGF-I receptor (IGF-IR) on P6 cells, which overexpress IGF-IR (UniProt P08069)
Experiment: cell-based or functional assay

Sequence of UniProt P08069 (P08069 31-1367 limits assumed): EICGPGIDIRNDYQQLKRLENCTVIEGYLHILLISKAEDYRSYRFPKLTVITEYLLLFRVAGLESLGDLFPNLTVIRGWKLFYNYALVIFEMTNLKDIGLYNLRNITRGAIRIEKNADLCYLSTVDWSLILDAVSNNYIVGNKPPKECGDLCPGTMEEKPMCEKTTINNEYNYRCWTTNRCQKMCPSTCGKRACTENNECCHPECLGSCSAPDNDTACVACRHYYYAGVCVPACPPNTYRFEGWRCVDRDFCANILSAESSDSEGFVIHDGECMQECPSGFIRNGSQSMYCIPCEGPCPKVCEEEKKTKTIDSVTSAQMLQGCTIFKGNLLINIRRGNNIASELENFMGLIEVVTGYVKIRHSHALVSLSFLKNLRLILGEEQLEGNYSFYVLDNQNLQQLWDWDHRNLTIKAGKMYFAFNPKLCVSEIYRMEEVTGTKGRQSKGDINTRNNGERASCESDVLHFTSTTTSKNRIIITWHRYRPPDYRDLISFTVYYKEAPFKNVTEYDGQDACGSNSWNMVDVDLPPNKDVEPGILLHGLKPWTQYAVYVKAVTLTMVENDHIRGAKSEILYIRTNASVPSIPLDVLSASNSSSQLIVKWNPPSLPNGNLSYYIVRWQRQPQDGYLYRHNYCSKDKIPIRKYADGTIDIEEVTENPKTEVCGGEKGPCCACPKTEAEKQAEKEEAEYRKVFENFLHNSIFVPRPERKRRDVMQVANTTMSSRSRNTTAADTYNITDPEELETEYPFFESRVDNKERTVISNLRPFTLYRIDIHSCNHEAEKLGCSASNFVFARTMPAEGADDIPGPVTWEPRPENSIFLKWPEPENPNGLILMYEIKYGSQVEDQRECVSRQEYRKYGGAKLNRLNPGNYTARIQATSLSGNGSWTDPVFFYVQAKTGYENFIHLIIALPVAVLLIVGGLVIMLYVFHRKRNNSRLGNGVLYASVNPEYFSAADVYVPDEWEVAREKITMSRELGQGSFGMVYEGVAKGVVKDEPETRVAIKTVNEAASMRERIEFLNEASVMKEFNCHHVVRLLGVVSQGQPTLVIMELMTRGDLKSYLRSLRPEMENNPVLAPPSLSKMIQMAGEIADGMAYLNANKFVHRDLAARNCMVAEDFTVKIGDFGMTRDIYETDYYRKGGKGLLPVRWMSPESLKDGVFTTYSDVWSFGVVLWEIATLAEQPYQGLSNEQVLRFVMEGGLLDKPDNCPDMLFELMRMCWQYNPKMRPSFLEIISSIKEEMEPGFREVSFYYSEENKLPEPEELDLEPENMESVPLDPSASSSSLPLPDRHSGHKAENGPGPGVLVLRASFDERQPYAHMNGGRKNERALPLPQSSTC

## mature IGF-I (murine), produced from the IGF-ISt construct (from UniProt P05017 49-118) (ligand)
  KIRA (rel to IStop): 1
  KIRA Raw (IGF-IR phosphorylation, KIRA assay on P6 cells, conditioned medium): 39
  KIRA/Total IGF: 47.9

## pro-IGF-I (non-glycosylated pro-IGF-IA: mature IGF-I plus EA-peptide) (from UniProt P05017 1-153) (ligand)
  calculated relative IGF-IR activation by pro-IGF-I (P), mature IGF-I set to 1.0, from the NN equation: 0.84
  calculated relative IGF-IR activation by pro-IGF-I (P), mature IGF-I set to 1.0, mean of the NN and KRRNN equations: 0.89

## IGF-IKRR (IGF-IA with K68G, R71A, R77A, cleavage blocked) (from UniProt P05017 49-153) (ligand)
  IGF-IR phosphorylation per IGF molecule against mature IGF-I (KIRA, 4 experiments): 30 % less
  KIRA (rel to IStop): 0.61
  KIRA Raw (IGF-IR phosphorylation, KIRA assay on P6 cells, conditioned medium): 23.6
  KIRA/Total IGF: 29.3

## IGF-IA (murine class I IGF-IA, wild-type construct) (from UniProt P05017 49-153) (ligand)
  IGF-IR phosphorylation per IGF molecule against mature IGF-I (KIRA, 4 experiments): 30 % less
  KIRA (rel to IStop): 0.59
  KIRA Raw (IGF-IR phosphorylation, KIRA assay on P6 cells, conditioned medium): 45.8
  KIRA/Total IGF: 28.2

## IGF-INN (IGF-IA with N92D and N100D, glycosylation blocked) (from UniProt P05017 49-153) (ligand)
  KIRA (rel to IStop): 0.88
  KIRA Raw (IGF-IR phosphorylation, KIRA assay on P6 cells, conditioned medium): 65.8
  KIRA/Total IGF: 42.4

## gly-pro-IGF-I (glycosylated pro-IGF-IA) (from UniProt P05017 1-153) (ligand)
  calculated IGF-IR activation (KIRA, FIG. 5B), potency against mature IGF-I (fold less potent): 2
  calculated relative IGF-IR activation by gly-pro-IGF-I (GP), mature IGF-I set to 1.0, from the IA equation: 0.3
  calculated relative IGF-IR activation by gly-pro-IGF-I (GP), mature IGF-I set to 1.0, from the KRR equation: 0.47
  calculated relative IGF-IR activation by gly-pro-IGF-I (GP), mature IGF-I set to 1.0, mean of the IA and KRR equations: 0.38

## IGF-IKRRNN (IGF-IA with K68G, R71A, R77A, N92D, N100D; produces only pro-IGF-I) (from UniProt P05017 49-153) (ligand)
  IGF-IR response in Kinase Receptor Activation (KIRA) assays, against mature IGF-I: 30 % more
  KIRA (rel to IStop): 0.93
  KIRA Raw (IGF-IR phosphorylation, KIRA assay on P6 cells, conditioned medium): 42.6
  KIRA/Total IGF: 44.4
